From IntAct's records for PubMed 31515488 come the findings set out here.

The labels stand for the following.
B1: Alpha-taxilin (Homo sapiens), P40222 (parent)
chain: MKNQDKKNGAAKQSNPKSSPGQPEAGPEGAQERPSQAAPAVEAEGPGSSQAPRKPEGAQARTAQSGALRDVSEELSRQLEDILSTYCVDNNQGGPGEDGAQGEPAEPEDAEKSRTYVARNGEPEPTPVVNGEKEPSKGDPNTEEIRQSDEVGDRDHRRPQEKKKAKGLGKEITLLMQTLNTLSTPEEKLAALCKKYAELLEEHRNSQKQMKLLQKKQSQLVQEKDHLRGEHSKAVLARSKLESLCRELQRHNRSLKEEGVQRAREEEEKRKEVTSHFQVTLNDIQLQMEQHNERNSKLRQENMELAERLKKLIEQYELREEHIDKVFKHKDLQQQLVDAKLQQAQEMLKEAEERHQREKDFLLKEAVESQRMCELMKQQETHLKQQLALYTEKFEEFQNTLSKSSEVFTTFKQEMEKMTKKIKKLEKETTMYRSRWESSNKALLEMAEEKTVRDKELEGLQVKIQRLEKLCRALQTERNDLNKRVQDLSAGGQGSLTDSGPERRPEGPGAQAPSSPRVTEAPCYPGAPSTEASGQTGPQEPTSARA
partner: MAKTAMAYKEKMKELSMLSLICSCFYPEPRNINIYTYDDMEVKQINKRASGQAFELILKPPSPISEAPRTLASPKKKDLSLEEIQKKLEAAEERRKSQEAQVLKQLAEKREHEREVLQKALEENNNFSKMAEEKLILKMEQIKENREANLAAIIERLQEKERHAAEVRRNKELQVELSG
B2: Cyclin-D1-binding protein 1 (Homo sapiens), O95273 (parent)
chain: MASATAPAAAVPTLASPLEQLRHLAEELRLLLPRVRVGEAQETTEEFNREMFWRRLNEAAVTVSREATTLTIVFSQLPLPSPQETQKFCEQVHAAIKAFIAVYYLLPKDQGITLRKLVRGATLDIVDGMAQLMEVLSVTPTQSPENNDLISYNSVWVACQQMPQIPRDNKAAALLMLTKNVDFVKDAHEEMEQAVEECDPYSGLLNDTEENNSDNHNHEDDVLGFPSNQDLYWSEDDQELIIPCLALVRASKACLKKIRMLVAENGKKDQVAQLDDIVDISDEISPSVDDLALSIYPPMCHLTVRINSAKLVSVLKKALEITKASHVTPQPEDSWIPLLINAIDHCMNRIKELTQSELEL
partner: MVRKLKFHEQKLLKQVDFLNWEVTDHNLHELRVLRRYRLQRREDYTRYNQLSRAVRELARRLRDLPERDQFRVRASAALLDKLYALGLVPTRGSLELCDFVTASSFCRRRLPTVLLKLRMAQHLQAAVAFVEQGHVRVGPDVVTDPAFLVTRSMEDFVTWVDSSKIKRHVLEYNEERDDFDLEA
B3: Armadillo repeat-containing protein 1 (Homo sapiens), Q9NVT9 (parent)
chain: MNSSTSTMSEEPDALSVVNQLRDLAADPLNRRAIVQDQGCLPGLILFMDHPNPPVVHSALLALRYLAECRANREKMKGELGMMLSLQNVIQKTTTPGETKLLASEIYDILQSSNMADGDSFNEMNSRRRKAQFFLGTTNKRAKTVVLHIDGLDDTSRRNLCEEALLKIKGVISFTFQMAVQRCVVRIRSDLKAEALASAIASTKVMKAQQVVKSESGEEMLVPFQDTPVEVEQNTELPDYLPEDESPTKEQDKAVSRVGSHPEGGASWLSTAANFLSRSFYW
B4: Tuftelin-interacting protein 11 (Homo sapiens), Q9UBB9 (parent)
chain: MSLSHLYRDGEGRIDDDDDERENFEITDWDLQNEFNPNRQRHWQTKEEATYGVWAERDSDDERPSFGGKRARDYSAPVNFISAGLKKGAAEEAELEDSDDEEKPVKQDDFPKDFGPRKLKTGGNFKPSQKGFAGGTKSFMDFGSWERHTKGIGQKLLQKMGYVPGRGLGKNAQGIINPIEAKQRKGKGAVGAYGSERTTQSMQDFPVVDSEEEAEEEFQKELSQWRKDPSGSKKKPKYSYKTVEELKAKGRISKKLTAPQKELSQVKVIDMTGREQKVYYSYSQISHKHNVPDDGLPLQSQQLPQSGKEAKAPGFALPELEHNLQLLIDLTEQEIIQNDRQLQYERDMVVNLFHELEKMTEVLDHEERVISNLSKVLEMVEECERRMQPDCSNPLTLDECARIFETLQDKYYEEYRMSDRVDLAVAIVYPLMKEYFKEWDPLKDCTYGTEIISKWKSLLENDQLLSHGGQDLSADAFHRLIWEVWMPFVRNIVTQWQPRNCDPMVDFLDSWVHIIPVWILDNILDQLIFPKLQKEVENWNPLTDTVPIHSWIHPWLPLMQARLEPLYSPIRSKLSSALQKWHPSDSSAKLILQPWKDVFTPGSWEAFMVKNIVPKLGMCLGELVINPHQQHMDAFYWVIDWEGMISVSSLVGLLEKHFFPKWLQVLCSWLSNSPNYEEITKWYLGWKSMFSDQVLAHPSVKDKFNEALDIMNRAVSSNVGAYMQPGARENIAYLTHTERRKDFQYEAMQERREAENMAQRGIGVAASSVPMNFKDLIETKAEEHNIVFMPVIGKRHEGKQLYTFGRIVIYIDRGVVFVQGEKTWVPTSLQSLIDMAK
partner: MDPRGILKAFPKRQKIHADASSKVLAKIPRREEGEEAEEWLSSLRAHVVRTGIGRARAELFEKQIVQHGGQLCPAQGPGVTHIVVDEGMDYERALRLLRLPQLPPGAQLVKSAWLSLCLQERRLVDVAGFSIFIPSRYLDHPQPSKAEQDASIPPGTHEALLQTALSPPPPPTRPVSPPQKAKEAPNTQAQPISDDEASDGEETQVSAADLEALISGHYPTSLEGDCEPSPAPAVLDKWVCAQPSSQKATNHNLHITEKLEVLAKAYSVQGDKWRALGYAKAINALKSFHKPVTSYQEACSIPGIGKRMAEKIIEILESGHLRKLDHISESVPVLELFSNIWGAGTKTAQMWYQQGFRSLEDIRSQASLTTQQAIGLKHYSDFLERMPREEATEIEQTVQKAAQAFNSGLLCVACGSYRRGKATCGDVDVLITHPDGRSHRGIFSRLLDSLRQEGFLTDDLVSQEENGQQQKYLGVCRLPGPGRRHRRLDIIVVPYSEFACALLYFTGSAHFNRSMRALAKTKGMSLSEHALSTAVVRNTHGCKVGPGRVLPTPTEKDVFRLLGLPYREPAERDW

Variants of B1 are the subject of the first experiment. The note with it: with stmn2_human STMN2, Q93045.
For the variant P541S, the “effect of a mutation on the interaction” value is on record as “with no effect”.

Variants of B2 are the subject of another experiment. To be noted: with imp3_human IMP3, Q9NV31.
I277T: the “effect of a mutation on the interaction” value is recorded as “disrupting interaction strength”.

Another experiment covers variants of B3. To be noted: with mfr1l_human MTFR1L.
M83T: the “effect of a mutation on the interaction” value is recorded as “with no effect”.

The next experiment covers variants of B4. To be noted: with dpoll_human POLL.
For the variant R8Q, the “effect of a mutation on the interaction” value is given as “with no effect”.
As to S688L, the “effect of a mutation on the interaction” value is on record as “with no effect”.
